# From paper PMC4537050 (2015)
# T1: Human recombinant FGF8b (fibroblast growth factor-8b) (human)
# T1 chain: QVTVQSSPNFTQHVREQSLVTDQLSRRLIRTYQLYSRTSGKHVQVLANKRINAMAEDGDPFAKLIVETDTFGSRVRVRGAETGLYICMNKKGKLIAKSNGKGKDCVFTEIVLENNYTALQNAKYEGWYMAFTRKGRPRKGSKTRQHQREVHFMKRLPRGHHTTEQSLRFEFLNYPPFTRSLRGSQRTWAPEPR
# Biological target: T1, Human recombinant FGF8b (fibroblast …)
# Assay: SPR
row,Binder,Kd
1,Ac-ARGCA-NH2 [Ac-ARGCA-NH2],> 3000 µM
2,Ac-ARPCG-NH2 [Ac-ARPCG-NH2],1900 µM
3,"Ac-APCRA-NH2 [Ac-APCRA-NH2, partially scrambled peptide]",> 3000 µM
4,Ac-ARACA-NH2 [Ac-ARACA-NH2],> 3000 µM
5,Ac-GRPCG-NH2 [Ac-GRPCG-NH2],> 3000 µM
6,Ac-ARPMA-NH2 [Ac-ARPMA-NH2],> 3000 µM
7,"H-ARPCA-NH2 [H-ARPCA-NH2, non-acetylated peptide]",2900 µM
